Source: article doi:10.1101/2020.04.09.034405

Columns and labels:
[1] = target: ROBO1 fused to a fluorescent protein for FRET (ROBO1-mClover3) (human) (UniProt Q9Y6N7); test: FRET or BRET
[2] = target: EPHA2 fused to a fluorescent protein for FRET (EPHA2-mRuby3; EPHA2-mClover3) (human) (UniProt P29317); test: FRET or BRET

Chain of UniProt Q9Y6N7 (Q9Y6N7 26-1651): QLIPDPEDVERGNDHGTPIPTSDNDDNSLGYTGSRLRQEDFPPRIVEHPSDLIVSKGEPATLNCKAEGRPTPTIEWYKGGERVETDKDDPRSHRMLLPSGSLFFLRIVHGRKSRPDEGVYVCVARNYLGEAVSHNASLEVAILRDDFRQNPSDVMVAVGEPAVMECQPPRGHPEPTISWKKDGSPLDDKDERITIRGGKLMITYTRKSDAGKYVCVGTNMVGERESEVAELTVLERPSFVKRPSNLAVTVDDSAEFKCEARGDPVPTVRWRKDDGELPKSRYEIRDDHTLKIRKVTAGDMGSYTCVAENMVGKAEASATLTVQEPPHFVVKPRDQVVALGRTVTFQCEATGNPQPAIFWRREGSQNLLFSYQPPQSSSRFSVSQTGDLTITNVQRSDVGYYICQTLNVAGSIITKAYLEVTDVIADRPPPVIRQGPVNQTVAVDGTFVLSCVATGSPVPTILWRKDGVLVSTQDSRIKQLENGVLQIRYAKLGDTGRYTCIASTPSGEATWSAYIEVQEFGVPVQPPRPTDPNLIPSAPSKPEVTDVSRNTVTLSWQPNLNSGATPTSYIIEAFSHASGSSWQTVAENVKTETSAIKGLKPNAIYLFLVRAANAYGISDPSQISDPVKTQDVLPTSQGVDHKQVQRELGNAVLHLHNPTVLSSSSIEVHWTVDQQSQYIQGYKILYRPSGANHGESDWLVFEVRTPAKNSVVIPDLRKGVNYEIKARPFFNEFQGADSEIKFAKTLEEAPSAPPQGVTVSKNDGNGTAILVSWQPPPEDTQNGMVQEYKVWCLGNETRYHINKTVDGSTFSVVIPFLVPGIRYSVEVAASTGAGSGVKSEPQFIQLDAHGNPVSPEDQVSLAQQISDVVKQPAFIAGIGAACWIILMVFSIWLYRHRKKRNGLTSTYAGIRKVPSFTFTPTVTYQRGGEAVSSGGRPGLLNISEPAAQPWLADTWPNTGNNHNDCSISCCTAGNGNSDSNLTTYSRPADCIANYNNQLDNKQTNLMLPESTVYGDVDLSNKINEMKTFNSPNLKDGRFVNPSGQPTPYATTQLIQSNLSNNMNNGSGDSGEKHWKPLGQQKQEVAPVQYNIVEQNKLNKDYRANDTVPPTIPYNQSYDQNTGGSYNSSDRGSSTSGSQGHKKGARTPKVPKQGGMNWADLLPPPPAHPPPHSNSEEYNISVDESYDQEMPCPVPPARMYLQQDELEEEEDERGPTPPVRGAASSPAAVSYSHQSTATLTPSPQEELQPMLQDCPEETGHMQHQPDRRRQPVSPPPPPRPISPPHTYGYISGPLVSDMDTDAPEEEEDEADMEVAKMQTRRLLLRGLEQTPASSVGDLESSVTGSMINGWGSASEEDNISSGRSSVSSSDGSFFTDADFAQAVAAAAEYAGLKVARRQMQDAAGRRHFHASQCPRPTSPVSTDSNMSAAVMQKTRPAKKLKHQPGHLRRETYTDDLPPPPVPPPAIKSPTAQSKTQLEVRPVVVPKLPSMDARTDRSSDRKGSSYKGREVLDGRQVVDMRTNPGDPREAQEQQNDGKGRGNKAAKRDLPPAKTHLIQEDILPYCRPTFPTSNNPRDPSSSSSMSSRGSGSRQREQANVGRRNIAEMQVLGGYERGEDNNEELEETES

EPHA2 fused to a fluorescent protein for FRET (EPHA2-mRuby3; EPHA2-mClover3) (from UniProt P29317 24-976) (receptor)
N-FRET [1]: 0.234 | N-FRET [2]: 0.347
